# Experimental data published in US10072252B2 (priority 2013, dated 2018).
# B1: SsoPox W263I: SEQ ID NO: 3 with substitution of tryptophan W in position 263 by isoleucine I (protein, listed as Sulfolobus solfataricus)
# chain: MRIPLVGKDSIESKDIGFTLIHEHLRVFSEAVRQQWPHLYNEDEEFRNAVNEVKRAMQFGVKTIVDPTVMGLGRDIRFMEKVVKATGINLVAGTGIYIYIDLPFYFLNRSIDEIADLFIHDIKEGIQGTLNKAGFVKIAADEPGITKDVEKVIRAAAIANKETKVPIITHSNAHNNTGLEQQRILTEEGVDPGKILIGHLGDTDNIDYIKKIADKGSFIGLDRYGLDLFLPVDKRNETTLRLIKDGYSDKIMISHDYCCTIDIGTAKPEYKPKLAPRWSITLIFEDTIPFLKRNGVNEEVIATIFKENPKKFFS
# B2: SsoPox: SsoPox enzyme tested for ecotoxicity; variant not specified (protein, UniProt Q97VT7 1-314, looked up)
# Aryldialkylphosphatase: MRIPLVGKDSIESKDIGFTLIHEHLRVFSEAVRQQWPHLYNEDEEFRNAVNEVKRAMQFGVKTIVDPTVMGLGRDIRFMEKVVKATGINLVAGTGIYIYIDLPFYFLNRSIDEIADLFIHDIKEGIQGTLNKAGFVKIAADEPGITKDVEKVIRAAAIANKETKVPIITHSNAHNNTGLEQQRILTEEGVDPGKILIGHLGDTDNIDYIKKIADKGSFIGLDRYGLDLFLPVDKRNETTLRLIKDGYSDKIMISHDYCCTIDWGTAKPEYKPKLAPRWSITLIFEDTIPFLKRNGVNEEVIATIFKENPKKFFS
# Experiments:
# [1] = assay type: physicochemical; settings: pH 8
# P. aeruginosa PAO1 = settings: in vivo
# [2] = rat, in vivo
# lasB transcription = assay type: cell-based, P. aeruginosa
# [3] = test system: P. aeruginosa PAO1 biofilm formation; assay type: cell-based
# 3-oxo-C12 AHL = assay type: cell-based, Pseudomonas aeruginosa
# [4] = test system: sea urchins larvae (Paracentrotus lividus); settings: in vivo
Molecule,melting temperature [1],mean time to death (P. aeruginosa PAO1),mortality rate (P. aeruginosa PAO1),acute inflammatory reactions in the respiratory parenchyma [2],histological analysis of lungs [2],macroscopic aspect of lungs removed after treatment [2],spontaneous mortality [2],tolerance of tracheal instillation [2],half inhibition concentration ([C1/2]) of lasB transcription (lasB transcription),[C1/2] of inhibition of biofilm formation [3],relative lactonase activity in screening (3-oxo-C12 AHL hydrolysis) (3-oxo-C12 AHL),effects on viability and development [4]
B1,87.8±1.2 °C,37 ± 13 h,20%,no observable acute inflammatory reactions,normal lung parenchyma,no macroscopic signs of injury,no spontaneous mortality was observed,well tolerated,around 0.5 μg/mL,approximately 170 μg/mL,selected for a potential lactonase activity improvement,
B2,,,,,,,,,,,,no effects have been observed
